Laboratory results reported in patent publication US20190024087.

molecular target: T1, GDF11 (mature human) (Homo sapiens) (UniProt O95390); experiment: filter; conditions: NapdU at all P (n) positions; 0.1 uM Z-block
T1 sequence: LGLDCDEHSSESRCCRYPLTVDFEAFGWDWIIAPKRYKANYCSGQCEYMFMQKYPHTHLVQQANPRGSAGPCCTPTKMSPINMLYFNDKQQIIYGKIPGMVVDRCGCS

| Sequence | Kd [nM] |
| --- | --- |
| CCCTGCGCCTTCGGACTTGCTTTAAGTTTAGCCGCTCGCTCACATCACAA [12060-204_3] | 0.94 |
| CCCTGCGCCTTCGGACTTGCTTTAGGTTTAGCCGCTTGCTCACATCACAA [12060-28_40] | 1.4 |
| CCCTGCGCCTTCGGACTTGCTTTACGTTTAGCCGCTTGCTCACATCACAA [12060-238_3] | 3.4 |
| CTGTGCTAAGACTGCGGACTTGATTTAGGTTTAGCCGCAAGAAGTCACAA [16139-37_3] | 1.21 |
| CCCTGGTTGACAAGGTACTGGACTTGATTTACGTTTAGCCTCAAGCACAA [12058-386_3] | 6.7 |
| CTGTGGACTGAGTTGGATGGGACTTGATTTAAGTTTAGCCCGCAACACAA [16139-3_3] | 1.58 |
| CTGTGACCTTCACCCGTGACTTGGTTTACGTTTAGCGGGTAGGTCACAA [16139-178_3] | 1.08 |
| CCCTGCGCCTTCGGACTTGGTTTAAGTTTAGCCGCTTGCTCACATCACAA [12060-28_39] | 1.2 |
| CCCTGTGCCTTCGGACTTGCTTTAAGTTTAGCCGCTTGCTCACATCACAA [12060-32_3] | 1.45 |
| CCCTGCGCCTTCGGACTTGCTTTAAGTTTAGCCGCTTGCTCACGTCACAA [12060-130_3] | 0.61 |
| CCCTGCGCCTTCGGACTTGCTTTAAGTTTAGCCGCTTGCTTACATCACAA [12060-116_3] | 1.14 |
| CCCTGCGCCTTCGGACTTGCTTTAAGTTTAGCCGCTTGCTCACAACACAA [12060-300_3] | 0.99 |
| CCCTGCGCCTTCGGACTTGCTTTAAGTTTAGCCGCTTGTTCACATCACAA [12060-4_3] | 0.9 |
| CTGTGAGTGTACCTCGCGCTTGATTTACGTTTAGGCGAGGCAGGCCACAA [16139-30_3] | 0.92 |
| CTGTGAACTTGATTTAAGTTTAGGCACATACACCACTCCGGACGA [16139-198_3] | 0.62 |
| CTGTGACTAATGTGACCGGAGACTTGCTTTACGTTTAGCGACCTGCACAA [16139-12_3] | 1.7 |
| CTGTGCGTACTGACTTGATTTACGTTTTAGCGATGCATGCTTGAGCCACAA [16139-122_3] | 2.23 |
| CTGTGGTTAACGACGACTTGATTTACGTTTAGCGGCACCTTACACCACAA [16139-19_3] | 1.7 |
| CCCTGCGCCTTCGGACTTGATTTAAGTTTAGCCGCTTGCTCACATCACAA [12060-28_38] | 1.1 |

same assay, conditions: NapdU at all P (n) positions; 0.1 uM Z-block; Table 5 gives 4.17 nM, p194 1.74 nM with 1 uM Z-block

| Sequence | Kd [nM] |
| --- | --- |
| CCCTGCGCCTTCGGACTTGCTTTAAGTTTAGCCGCTTGCTCACATCACAA [12060-28_3] | 1.7 |

same assay, conditions: NapdU at all P (n) positions; 0.1 uM Z-block; Table 5 gives 6.52 nM

| Sequence | Kd [nM] |
| --- | --- |
| CCCTGTGAGACTTGATTTACGTTTAGCTGCTAACATGGGGAACCACACAA [12060-16_3] | 6.5 |
